We go through one molecule from US20250018039A1 (published 2025).

For the test, the target named is T1, wild-type human RAS (KRAS) peptide on HLA-A*03:01 (human).
T1 peptide: VVVGAGGVGK
Description: cytokine release. How it is done: Cos7 cells transduced with human HLA A*03:01 were independently pulsed with the G12V RAS peptide […] (SEQ ID NO: 33) or the corresponding wild-type peptide […] The transduced cells (effector cells) were co-cultured with the peptide-pulsed target cells. Interferon-gamma secretion was measured.

B1: TCR 807 (TCR, V domains shown)
Valpha: QQKVQQSPESLSVPEGGMASLNCTSSDRNFQYFWWYRQHSGEGPKALMSIFSDGDKKEGRFTAHLNKASLHVSLHIRDSQPSDSALYFCAARPGTQVVGQLTFGRGTRLQVYA
Vbeta: AQTIHQWPVAEIKAVGSPLSLGCTIKGKSSPNLYWYWQATGGTLQQLFYSITVGQVESVVQLNLSASRPKDDQFILSTEKLLLSHSGFYLCAWRDRPSSYEQYFGPGTRLTVL
For the molecule B1, the binding result is reported as “no recognition”.
